In patent publication US11466067B2 (priority 2019, dated 2022):

Key:
[1] = Oral gavage 10 mg/kg in mice: hIL-10 and IL-1Ra time course; assay type: in vivo
From the text: The inflammatory actions of IL-1β are modulated by the presence of a specific receptor antagonist known as IL-1Ra. Increased serum IL-1Ra levels can be induced by IL-10, which can occur in the absence of a pro-inflammatory state. With an appreciation of uncertainties associated with how much and when biologically active delivery construct is released from the stomach to reach the small intestine as well as the timing of its uptake and actions within the Lamina propria following oral gavage, we examined IL-1Ra to function in non-inflamed mice as a biomarker of the IL-10 delivery construct's actions.
To test this question, the delivery construct was directly deposited onto the luminal surface of colonic intestinal mucosa in a nonhuman primate model.

circulating cytokines = experiment: Plasma cytokines by MSD V-plex Proinflammatory Panel 1 (Example 14); assay type: in vivo, mice
From the text: Plasma cytokines were quantified using the V-plex Proinflammatory Panel 1 Mouse Kit. Plasma IL-1Ra was quantitated by sandwich immunoassay using an antibody pair from the Mouse IL-1Ra/IL-1F3 DuoSet ELISA (R&D Systems #DY480), Streptavidin SULFO-TAG Labeled (MSD #R32AD-1), Multi-Array 96 Plate Pack, SECTOR Plate MSD #L15XA-3 and Read Buffer T (4×) (MSD #R92TC-2). Samples were read on the QuickPlex SQ 120 plate reader (Meso Scale Discovery, Rockville, Md.).

[2] = Process trains with S-650F cation exchange: yield, recovery, purity, endotoxin
Protocol: Refolding was carried out at 4° C. in a refolding solution containing 1 mM reduced glutathione, 0.5 mM oxidized glutathione, 1M Arginine-HCl, 250 mM sucrose, 100 mM Tris pH 8.5 at 4° C., and 2 mM EDTA. […] Buffer A for the CHT bind/elute step in Table 56 may also comprise 25 mM Tris, pH7.5, 300 mM NaCl, 5.0 mM NaPi, 0.5 mM CaCl2. Columns used are described in Table 58.
The yield, recovery, and purity of the IL-10 delivery construct was assess after each step, and after each process train.

STAT3, IL-1Ra = experiment: pSTAT3/STAT3 and systemic IL-1Ra in non-inflamed mice (ELISA MSD); assay type: in vivo
ulcerative colitis = experiment: Phase 1b multiple ascending dose in patients with active UC; assay type: in vivo, human
Protocol: Data was gathered on the safety, tolerability, pharmacokinetics, pharmacodynamics, and initial clinical response following a multiple ascending dose (MAD) of the IL-10 delivery construct in adult patients with active UC over 14 days of treatment. […] A coating with a weight ratio of 50:50 of Eudragit® L30D55: Eudragit® FS30D was applied with a thickness of 14.8 to 16.0 mg/cm^2 and a weight of approximately 76 mg to each capsule. Placebo capsules were generated using similarly coated empty capsules.
A total of four cohorts were dosed with either 1 mg, 3 mg, 10, mg or 30 mg of the IL-10 delivery construct, randomized 3:1 to receive the IL-10 delivery construct or a placebo administered once daily for fourteen days. The goal of the trial was to assess the safety of the IL-10 delivery construct and any change in UC disease activity, through endoscopy, histology, biomarkers, and serum samples. Stool samples and colonic biopsies were obtained at baseline and day 14 of treatment to assess fecal calprotectin as well as histology based upon blinded central read of the Geboes scoring system. Fecal calprotectin is an objective marker of clinical response in UC studies and the Geboes scoring system is a measure of histological response. The Geboes scoring system of this example used a 0-22 point histologic scoring system in which higher scores represent more severe disease.

IL-1Ra [3] = experiment: Single oral capsule dose in NHP: plasma IL-1Ra; assay type: in vivo, Macaca fascicularis
Protocol: The purpose of the IL-1Ra assay was to measure endogenous IL-1Ra in NHP plasma. The antibody pair in this sandwich immunoassay reacted with both human and NHP IL-1Ra. Samples were quantitated using an 8-point standard curve prepared from a human IL-1Ra calibrator (ranging from 5.5-4021 pg/mL, plus 0 pg/mL). Biotinylated anti-NHP IL-1Ra capture antibody was added to a MSD Small Spot Streptavidin plate and incubated for an hour at RT with shaking. Controls that represent low ([…]), mid ([…]) and high concentrations (3245 pg/mL) were prepared in pooled plasma, Standards (Calibrator 9 Blend) were prepared in Diluent 43 (MSD Cat No R50AG), and samples diluted 10 fold in Diluent 43. Standards, controls and diluted samples were added to the assay plate, and the plate incubated for 2 hours at room temperature with shaking. The plate was washed 3 times with PBST, and 1×SULFO TAG anti-IL-1Ra Antibody added to the plate. The plate was incubated for 1 hour at room temperature with shaking. Following a wash step, 2×MSD Read buffer was added to the wells of the plate, and the plate read using the MSD Sector Imager 600 plate reader. The lower limit of detection of each analyte is defined as 2.5 standard deviation above background.
IL-10 delivery construct dosing at multiple fixed doses in non-naïve adult male Macaca fascicularis was conducted by Valley Biosystems (West Sacramento, Calif.). […] Dosing groups are described in TABLE 45.
Blood samples were collected in K2EDTA tubes from each animal pre-dose and at 0.5, 1, 2, 3, 4, 5, 6, 7, 8, and 24 hours post-dose. Animals were returned to home cages following the 2-hour sample collection. Following physical restraint, blood samples were collected via direct venous puncture using a cephalic, femoral or saphenous vein, which were processed to plasma and stored frozen at −60° C. until shipment.

DSS-induced colitis = assay type: in vivo, C57BL6/J mice
IL-1Ra [4] = assay type: in vivo, mice; settings: 9 mg/kg
[5] = Control process train: Capto Q, CHT (Linear elution), based on historical data
[6] = PT1: Capto Q, S-650F, CHT (FT mode)
[7] = PT2: Capto Q, CHT (Step elution), S-650F
[8] = PT3: S-650F, Capto Q, CHT (FT mode)

B1: IL-10 delivery construct: recombinant homodimeric fusion protein: N-terminal methionine, cholix386 domain, polyGlySer spacer, recombinant human IL-10 (protein)
chain: MVEEALNIFDECRSPCSLTPEPGKPIQSKLSIPSDVVLDEGVLYYSMTINDEQNDIKDEDKGESIITIGEFATVRATRHYVNQDAPFGVIHLDITTENGTKTYSYNRKEGEFAINWLVPIGEDSPASIKISVDELDQQRNIIEVPKLYSIDLDNQTLEQWKTQGNVSFSVTRPEHNIAISWPSVSYKAAQKEGSRHKRWAHWHTGLALCWLVPMDAIYNYITQQNCTLGDNWFGGSYETVAGTPKVITVKQGIEQKPVEQRIHFSKGNAMSALAAHRVCGVPLETLARSRKPRDLTDDLSCAYQAQNIVSLFVATRILFSHLDSVFTLNLDEQEPEVAERLSDLRRINENNPGMVTQVLTVARQIYNDYVTHHPGLTPEQTSAGAQAGGGGSGGGGSGGGGSPGQGTQSENSCTHFPGNLPNMLRDLRDAFSRVKTFFQMKDQLDNLLLKESLLEDFKGYLGCQALSEMIQFYLEEVMPQAENQDPDIKAHVNSLGENLKTLRLRLRRCHRFLPCENKSKAVEQVKNAFNKLQEKGIYKAMSEFDIFINYIEAYMTMKIRN
modifications: homodimer
- hIL-10 in small intestinal lysates relative to colonic lysates [1]: ~10 fold higher
- serum IL-1Ra ([1]; 4 h): significantly increased
- suppression of induction of plasma IL-4 (trend) (circulating cytokines): 62%
- suppression of induction of plasma IL-6 (trend) (circulating cytokines): 61%
- suppression of induction of plasma IL-12p70 (trend) (circulating cytokines): 65%
- suppression of induction of plasma KC/GRO (trend) (circulating cytokines): 51%
- plasma IL-1β and IL-2 vs Vehicle (circulating cytokines; p<0.05): significantly reduced
- Endotoxin [2, 5]: *8 EU/mg
- Purity [2, 5]: *85%
- Yield ([2]; Control: Capto Q ImpRes, CHT gradient B/E): 68 mg
- Endotoxin [2, 6]: 8.9 EU/mg
- Purity [2, 6]: 92%
- Yield ([2]; PT2: Capto Q ImpRes, CHT step B/E 80 mM NaPi, S-650F): 26 mg
- Endotoxin [2, 7]: 5 EU/mg
- Purity [2, 7]: 91%
- Endotoxin [2, 8]: 0.4 EU/mg
- Purity [2, 8]: 96%
- increase in ratio of pSTAT3 to total STAT3 (STAT3, IL-1Ra; construct 1 mg/kg, rhIL-10 0.9 mg/kg (equimolar), non-inflamed colon tissue): approximately 50%
- increase of systemic IL-1Ra (STAT3, IL-1Ra; construct 10 mg/kg, rhIL-10 3 mg/kg (equimolar)): about 3 fold
- FCP activity at higher doses (ulcerative colitis; 10 mg and 30 mg): diminution of activity
- Geboes score of one UC patient, pre-dose to post-treatment (ulcerative colitis; 10 mg, 14 days, 22 point scale): improved from a score of 15 to a score of three
- tolerability in patients with UC (ulcerative colitis; 1-30 mg once daily, 14 days): well tolerated
- CRP levels vs placebo (ulcerative colitis; 1 and 3 mgs, baseline CRP greater than 5 mg/L): greater reductions in CRP levels
- patients with reduced Geboes score (ulcerative colitis; 14 days, active patients): 60%
- TEAEs in the 12 active patients (ulcerative colitis; human, in vivo): 20
- time of plasma IL-1Ra Cmax (IL-1Ra [3]; 82 mg): 3 hours post-dose
- dose response of IL-1Ra Cmax (IL-1Ra [3]; 1, 4 and 20.5 mg): No dose response relationship
- time by which plasma IL-1Ra returned to baseline (IL-1Ra [3]; all dose groups): ≤ 24 hour post-dose
- edema width, mid colon (DSS-induced colitis; 30 mg/kg): significantly improved
- hyperplasia, mid colon (DSS-induced colitis; 30 mg/kg): significantly improved
- mucosal thickness, mid colon (DSS-induced colitis; 30 mg/kg): significantly improved
- colon length vs vehicle (DSS-induced colitis; 10 and 30 mg/kg, p<0.05): Significant improvement
- DSS-induced body weight loss (DSS-induced colitis; construct 30 mg/kg, CsA 75 mg/kg, oral q.d.): significantly reduced DSS-induced weight loss
- IL-1Ra mRNA in near-distal colonic tissue (IL-1Ra [4]): trend towards augmented mRNA expression of IL-1Ra
- IL-1Ra/IL-1β ratio in colonic tissue (IL-1Ra [4]): increase in the IL-1Ra/IL-1β ratio
